Laboratory results from the Human Domainome abundance scans (Beltran et al. 2025).
± gives the uncertainty stated by the source.

B1: Intersectin-1, residues 909 to 971; numbered along this chain, Q15811 (parent)
chain: QGEKVEGLQAQALYPWRAKKDNHLNFNKNDVITVLEQQDMWWFGEVQGQKGWFPKSYVKLISG

Variants of: B1
Assay: abundance fitness (aPCA) (normalised: wild type 0, dead -1); higher = more abundant; growth selection in yeast, the domain comes from the species named
Details: Homo sapiens

Variant | abundance fitness
N25A | -0.064 ± 0.1
Q37A | -0.036 ± 0.21
G48P | -0.604 ± 0.35
L13A | -0.271 ± 0.22
N22C | 0.051 ± 0.18
E45Q | 0.067 ± 0.16
V46S | -0.001 ± 0.13
Q9E | 0.008 ± 0.12
E45A | -0.245 ± 0.12
G2D | -0.265 ± 0.086
K4A | -0.159 ± 0.12
I32E | -1.03 ± 0.3
E45Y | 0.003 ± 0.26
K4P | -0.29 ± 0.27
K4V | -0.168 ± 0.18
Q49I | -0.208 ± 0.3
G44T | -0.604 ± 0.28
W16F | -0.092 ± 0.21
V46Y | -0.287 ± 0.29
G51C | -0.709 ± 0.32
A12R | -0.997 ± 0.21
G51D | -0.793 ± 0.4
G2K | 0.076 ± 0.28
V46M | -0.048 ± 0.11

Variant | abundance fitness
V31A | -0.274 ± 0.038
Y14G | -0.159 ± 0.072
E36D | -0.761 ± 0.41
W42F | -0.057 ± 0.17
Q9I | -0.172 ± 0.21
Q38V | -0.302 ± 0.12
Q11V | -0.364 ± 0.16
F43S | -0.546 ± 0.13
S56G | -0.147 ± 0.068
Q38L | -0.056 ± 0.21
V31K | -0.006 ± 0.045
W42S | -0.667 ± 0.12
P15C | -0.059 ± 0.18
W52R | -1 ± 0.21
K20A | 0.001 ± 0.049
G7S | 0.006 ± 0.12
S56K | -0.251 ± 0.2
E36H | -0.235 ± 0.2
D30I | -0.677 ± 0.054
K20N | 0.053 ± 0.054
Q49D | -0.466 ± 0.3
G51M | -0.938 ± 0.45
Q9H | 0.011 ± 0.27
G63L | -0.077 ± 0.32

Variant | abundance fitness
P15E | 0.054 ± 0.12
W41N | -0.154 ± 0.15
Q37P | -0.289 ± 0.18
F43A | -0.696 ± 0.13
N29G | -0.031 ± 0.067
F53G | -0.569 ± 0.29
Q49H | 0.045 ± 0.22
Q47E | 0.017 ± 0.12
N29C | -0.185 ± 0.12
W16H | -0.051 ± 0.26
P54E | -0.474 ± 0.14
F53H | -0.709 ± 0.49
K50I | -0.224 ± 0.21
I32W | -0.869 ± 0.2
Q38F | -0.423 ± 0.24
L24S | -0.867 ± 0.14
Q38P | -0.313 ± 0.16
V34I | 0.221 ± 0.16
N25P | -0.451 ± 0.37
N27M | -0.037 ± 0.22
G48K | -0.053 ± 0.18
Q49E | 0.222 ± 0.29
Y14K | -0.098 ± 0.15
N25V | -0.207 ± 0.076

Variant | abundance fitness
M40A | -0.083 ± 0.09
Q47V | -0.097 ± 0.076
L60F | -0.536 ± 0.17
W42V | -0.411 ± 0.07
V31C | -0.08 ± 0.035
N25S | -0.074 ± 0.14
F43D | -0.997 ± 0.34
N22V | -0.313 ± 0.11
G63T | 0.032 ± 0.15
S62I | -0.165 ± 0.3
V31H | -0.117 ± 0.038
G44V | -1.1 ± 0.41
G48Q | -0.38 ± 0.2
Y14Q | -0.129 ± 0.21
P54V | -0.499 ± 0.12
W16R | -0.115 ± 0.084
V46Q | -0.279 ± 0.17
W42D | -0.429 ± 0.25
D39G | -0.014 ± 0.057
H23M | -0.231 ± 0.16
A10S | -0.506 ± 0.12
I61W | -0.274 ± 0.12
E6K | -0.306 ± 0.27
Q37I | -0.286 ± 0.3

Variant | abundance fitness
P54Q | -0.688 ± 0.3
L13Q | -0.2 ± 0.28
V5I | -0.151 ± 0.1
S62Y | -0.626 ± 0.38
G44D | -0.999 ± 0.4
V58F | -0.821 ± 0.37
W42A | -0.244 ± 0.073
V34Y | -0.856 ± 0.44
W42Y | 0.031 ± 0.15
H23R | -0.254 ± 0.11
E6M | -0.069 ± 0.25
S56F | -0.239 ± 0.19
Q9S | -0.083 ± 0.098
D21C | -0.167 ± 0.045
V5L | -0.364 ± 0.14
K28Y | -0.254 ± 0.41
Q47P | -0.293 ± 0.19
V34E | -0.549 ± 0.19
K59M | -0.108 ± 0.23
W16E | -0.888 ± 0.44
L60M | -0.058 ± 0.2
W52P | -0.721 ± 0.27
K55Q | -0.005 ± 0.34
P54R | -0.714 ± 0.12

Variant | abundance fitness
P15Q | 0.052 ± 0.13
Y14P | -0.585 ± 0.44
G48F | -0.522 ± 0.36
H23Q | -0.135 ± 0.31
Q38M | -0.061 ± 0.16
H23W | -0.04 ± 0.2
K50D | -0.256 ± 0.2
Q1R | -0.299 ± 0.13
G7D | -0.095 ± 0.12
I61V | 0.095 ± 0.085
E3A | -0.293 ± 0.13
K59V | -0.234 ± 0.12
K20W | -0.156 ± 0.06
E36W | -0.117 ± 0.12
L35M | -0.019 ± 0.34
S62C | -0.089 ± 0.16
N25C | -0.057 ± 0.28
V46D | -0.384 ± 0.31
W16K | -0.427 ± 0.18
Q47R | -0.151 ± 0.088
L35A | -0.612 ± 0.36
W41Q | -0.316 ± 0.15
F26S | -0.866 ± 0.29
A18W | -0.362 ± 0.1

Variant | abundance fitness
N25R | -0.177 ± 0.13
Q47F | 0.133 ± 0.2
K55G | -0.165 ± 0.24
S56V | -0.099 ± 0.081
N27T | -0.307 ± 0.43
V34W | -0.524 ± 0.15
N25K | 0.115 ± 0.31
F53E | -0.858 ± 0.46
F43L | -0.019 ± 0.09
K50Q | -0.308 ± 0.17
Q37V | -0.588 ± 0.24
V46F | -0.101 ± 0.34
E6T | -0.215 ± 0.12
G48W | -0.939 ± 0.41
S56T | -0.016 ± 0.16
I32A | -0.7 ± 0.11
K28E | -0.173 ± 0.21
W16Y | -0.32 ± 0.29
Q49G | -0.005 ± 0.14
R17K | -0.359 ± 0.36
D39A | -0.014 ± 0.093
D39W | -0.588 ± 0.16
T33W | -0.175 ± 0.072
